This is an account of results in the supplement of paper PMC5998384.

For data set [1], the system named is HeLa Kyoto. The data set can be described thus: thermal stability score vs G1/S (z-score of summed log2 fold changes over temperatures); higher = more thermally stable than in G1/S.
Data set [2] has as its system HeLa Kyoto. Put plainly: solubility in G1/S (NP-40 vs SDS abundance) (log2 ratio); higher = more soluble. The settings on record: cell cycle stage: G1/S.
Data set [3] concerns HeLa Kyoto. Put plainly: solubility change mitosis vs G1/S (difference of NP-40 vs SDS log2 ratios) (log2 ratio difference); higher = more soluble in mitosis.
Data set [4] has as its system HeLa Kyoto. The data set can be described thus: melting temperature (median over replicates), in situ; higher = more thermally stable.
The mark [5] stands for this setting: cell cycle stage: early G1 (4.5 h after nocodazole release).
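For melting temperature (median over replicates), in situ in this document: HeLa Kyoto cells synchronized by double thymidine or nocodazole block, proteins quantified by TMT10plex mass spectrometry, three independent biological replicates.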
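For solubility change mitosis vs G1/S (difference of NP-40 vs SDS log2 ratios) in this document: synchronized HeLa Kyoto cells (double thymidine block for G1/S, nocodazole release for mitosis), protein amounts in NP-40 versus SDS lysates quantified by mass spectrometry, three biological replicates.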
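For solubility in G1/S (NP-40 vs SDS abundance) in this document: HeLa Kyoto cells arrested at G1/S by double thymidine block, proteins quantified by TMT10plex mass spectrometry in mild NP-40 versus SDS extracts, three biological replicates.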
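For thermal stability score vs G1/S (z-score of summed log2 fold changes over temperatures) in this document: synchronized HeLa Kyoto cells, proteins quantified by TMT10plex mass spectrometry, three biological replicates, mitosis taken 0.5 h after nocodazole release, G1/S directly after double thymidine block.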

PRSS21, sequence (chain, as listed by the source): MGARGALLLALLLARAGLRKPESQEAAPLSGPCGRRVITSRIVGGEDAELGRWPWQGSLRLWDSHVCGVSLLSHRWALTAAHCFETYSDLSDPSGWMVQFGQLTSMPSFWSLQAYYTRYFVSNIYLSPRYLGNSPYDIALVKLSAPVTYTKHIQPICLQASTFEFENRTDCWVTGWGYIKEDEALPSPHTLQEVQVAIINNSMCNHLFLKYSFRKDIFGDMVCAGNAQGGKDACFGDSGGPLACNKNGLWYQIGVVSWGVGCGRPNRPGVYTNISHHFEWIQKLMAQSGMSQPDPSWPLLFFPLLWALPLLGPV

“MASASYHISNLLEKMTSSDKDFRFMATNDLMTELQKDSIKLDDDSERKVVKMILKLLEDKNGEVQNLAVKCLGPLVSKVKEYQVETIVDTLCTNMLSDKEQLRDISSIGLKTVIGELPPASSGSALAANVCKKITGRLTSAIAKQEDVSVQLEALDIMADMLSRQGGLLVNFHPSILTCLLPQLTSPRLAVRKRTIIALGHLVMSCGNIVFVDLIEHLLSELSKNDSMSTTRTYIQCIAAISRQAGHRIGEYLEKIIPLVVKFCNVDDDELREYCIQAFESFVRRCPKEVYPHVSTIINICLKYLTYDPNYNYDDEDEDENAMDADGGDDDDQGSDDEYSDDDDMSWKVRRAAAKCLDAVVSTRHEMLPEFYKTVSPALISRFKEREENVKADVFHAYLSLLKQTRPVQSWLCDPDAMEQGETPLTMLQSQVPNIVKALHKQMKEKSVKTRQCCFNMLTELVNVLPGALTQHIPVLVPGIIFSLNDKSSSSNLKIDALSCLYVILCNHSPQVFHPHVQALVPPVVACVGDPFYKITSEALLVTQQLVKVIRPLDQPSSFDATPYIKDLFTCTIKRLKAADIDQEVKERAISCMGQIICNLGDNLGSDLPNTLQIFLERLKNEITRLTTVKALTLIAGSPLKIDLRPVLGEGVPILASFLRKNQRALKLGTLSALDILIKNYSDSLTAAMIDAVLDELPPLISESDMHVSQMAISFLTTLAKVYPSSLSKISGSILNELIGLVRSPLLQGGALSAMLDFFQALVVTGTNNLGYMDLLRMLTGPVYSQSTALTHKQSYYSIAKCVAALTRACPKEGPAVVGQFIQDVKNSRSTDSIRLLALLSLGEVGHHIDLSGQLELKSVILEAFSSPSEEVKSAASYALGSISVGNLPEYLPFVLQEITSQPKRQYLLLHSLKEIISSASVVGLKPYVENIWALLLKHCECAEEGTRNVVAECLGKLTLIDPETLLPRLKGYLISGSSYARSSVVTAVKFTISDHPQPIDPLLKNCIGDFLKTLEDPDLNVRRVALVTFNSAAHNKPSLIRDLLDTVLPHLYNETKVRKELIREVEMGPFKHTVDDGLDIRKAAFECMYTLLDSCLDRLDIFEFLNHVEDGLKDHYDIKMLTFLMLVRLSTLCPSAVLQRLDRLVEPLRATCTTKVKANSVKQEFEKQDELKRSAMRAVAALLTIPEAEKSPLMSEFQSQISSNPELAAIFESIQKDSSSTNLESMDTS [CAND1]”: the thermal stability score in the data set with HeLa Kyoto [1] (setting [5]) is -0.92; with HeLa Kyoto [1] (cell cycle stage: mitosis), -0.546. Further, in the data set on HeLa Kyoto [2], the “solubility in G1/S (log2)” value came to 0.0808. Besides, in the data set with HeLa Kyoto [3], the “solubility change mitosis (log2)” value was -0.0927. For the same substance, the melting temperature in the data set on HeLa Kyoto [4] (cell cycle stage: G1/S) was 56.9 °C; in the data set with HeLa Kyoto [4] (cell cycle stage: mitosis), 56.2 °C.

For the substance “MSDEEARQSGGSSQAGVVTVSDVQELMRRKEEIEAQIKANYDVLESQKGIGMNEPLVDCEGYPRSDVDLYQVRTARHNIICLQNDHKAVMKQVEEALHQLHARDKEKQARDMAEAHKEAMSRKLGQSESQGPPRAFAKVNSISPGSPASIAGLQVDDEIVEFGSVNTQNFQSLHNIGSVVQHSEGKPLNVTVIRRGEKHQLRLVPTRWAGKGLLGCNIIPLQR [PSMD9]”, the thermal stability score in the data set with HeLa Kyoto [1] (setting [5]) was -2.77; with HeLa Kyoto [1] (cell cycle stage: mitosis) it was -3.23. Also, in the data set on HeLa Kyoto [2], the “solubility in G1/S (log2)” value turned out to be 0.431. Besides, the “solubility change mitosis (log2)” value with HeLa Kyoto [3] was determined as 0.112. The values for the melting temperature in the data set with HeLa Kyoto [4] (cell cycle stage: G1/S) and with HeLa Kyoto [4] (cell cycle stage: mitosis) were 55.8 °C and 55.7 °C, respectively.

As to “MWALRAAVRPGLRLSRVGRGRSAPRAAAPSCPARALAAVGRRSPGNLEGPWGGGRGLRADGGRSRTGDDEEEPEDADENAEEELLRGEPLLPAGTQRVCLVHPDVKWGPGKSQMTRAEWQVAEATALVHTLDGWSVVQTMVVSTKTPDRKLIFGKGNFEHLTEKIRGSPDITCVFLNVERMAAPTKKELEAAWGVEVFDRFTVVLHIFRCNARTKEARLQVALAEMPLHRSNLKRDVAHLYRGVGSRYIMGSGESFMQLQQRLLREKEAKIRKALDRLRKKRHLLRRQRTRREFPVISVVGYTNCGKTTLIKALTGDAAIQPRDQLFATLDVTAHAGTLPSRMTVLYVDTIGFLSQLPHGLIESFSATLEDVAHSDLILHVRDVSHPEAELQKCSVLSTLRGLQLPAPLLDSMVEVHNKVDLVPGYSPTEPNVVPVSALRGHGLQELKAELDAAVLKATGRQILTLRVRLAGAQLSWLYKEATVQEVDVIPEDGAADVRVIISNSAYGKFRKLFPG [GTPBP6]”, the thermal stability score in the data set on HeLa Kyoto [1] (setting [5]) was -0.762; in the data set on HeLa Kyoto [1] (cell cycle stage: mitosis), -0.462. In addition, in the data set with HeLa Kyoto [2], the “solubility in G1/S (log2)” value was -0.232. In addition, the “solubility change mitosis (log2)” value in the data set with HeLa Kyoto [3] turned out to be 0.00881. Moreover, the melting temperature in the data set with HeLa Kyoto [4] (cell cycle stage: G1/S) was found to be 51.8 °C; in the data set on HeLa Kyoto [4] (cell cycle stage: mitosis), 51.4 °C.

In the case of “MERASERRTASALFAGFRALGLFSNDIPHVVRFSALKRRFYVTTCVGKSFHTYDVQKLSLVAVSNSVPQDICCMAADGRLVFAAYGNVFSAFARNKEIVHTFKGHKAEIHFLQPFGDHIISVDTDGILIIWHIYSEEEYLQLTFDKSVFKISAILHPSTYLNKILLGSEQGSLQLWNVKSNKLLYTFPGWKVGVTALQQAPAVDVVAIGLMSGQVIIHNIKFNETLMKFRQDWGPITSISFRTDGHPVMAAGSPCGHIGLWDLEDKKLINQMRNAHSTAIAGLTFLHREPLLVTNGADNALRIWIFDGPTGEGRLLRFRMGHSAPLTNIRYYGQNGQQILSASQDGTLQSFSTVHEKFNKSLGHGLINKKRVKRKGLQNTMSVRLPPITKFAAEEARESDWDGIIACHQGKLSCSTWNYQKSTIGAYFLKPKELKKDDITATAVDITSCGNFAVIGLSSGTVDVYNMQSGIHRGSFGKDQAHKGSVRGVAVDGLNQLTVTTGSEGLLKFWNFKNKILIHSVSLSSSPNIMLLHRDSGILGLALDDFSISVLDIETRKIVREFSGHQGQINDMAFSPDGRWLISAAMDCSIRTWDLPSGCLIDCFLLDSAPLNVSMSPTGDFLATSHVDHLGIYLWSNISLYSVVSLRPLPADYVPSIVMLPGTCQTQDVEVSEETVEPSDELIEYDSPEQLNEQLVTLSLLPESRWKNLLNLDVIKKKNKPKEPPKVPKSAPFFIPTIPGLVPRYAAPEQNNDPQQSKVVNLGVLAQKSDFCLKLEEGLVNNKYDTALNLLKESGPSGIETELRSLSPDCGGSIEVMQSFLKMIGMMLDRKRDFELAQAYLALFLKLHLKMLPSEPVLLEEITNLSSQVEENWTHLQSLFNQSMCILNYLKSALL [WDR36]”, the thermal stability score with HeLa Kyoto [1] (setting [5]) was determined as 0.383; with HeLa Kyoto [1] (cell cycle stage: mitosis), 0.754. For the same substance, the “solubility in G1/S (log2)” value with HeLa Kyoto [2] was -1.46. For the same substance, the “solubility change mitosis (log2)” value in the data set with HeLa Kyoto [3] came out at 0.613. In addition, the melting temperature in the data set on HeLa Kyoto [4] (cell cycle stage: G1/S) turned out to be 50.5 °C; in the data set on HeLa Kyoto [4] (cell cycle stage: mitosis), 50.8 °C.

Consider “MDTMMLNVRNLFEQLVRRVEILSEGNEVQFIQLAKDFEDFRKKWQRTDHELGKYKDLLMKAETERSALDVKLKHARNQVDVEIKRRQRAEADCEKLERQIQLIREMLMCDTSGSIQLSEEQKSALAFLNRGQPSSSNAGNKRLSTIDESGSILSDISFDKTDESLDWDSSLVKTFKLKKREKRRSTSRQFVDGPPGPVKKTRSIGSAVDQGNESIVAKTTVTVPNDGGPIEAVSTIETVPYWTRSRRKTGTLQPWNSDSTLNSRQLEPRTETDSVGTPQSNGGMRLHDFVSKTVIKPESCVPCGKRIKFGKLSLKCRDCRVVSHPECRDRCPLPCIPTLIGTPVKIGEGMLADFVSQTSPMIPSIVVHCVNEIEQRGLTETGLYRISGCDRTVKELKEKFLRVKTVPLLSKVDDIHAICSLLKDFLRNLKEPLLTFRLNRAFMEAAEITDEDNSIAAMYQAVGELPQANRDTLAFLMIHLQRVAQSPHTKMDVANLAKVFGPTIVAHAVPNPDPVTMLQDIKRQPKVVERLLSLPLEYWSQFMMVEQENIDPLHVIENSNAFSTPQTPDIKVSLLGPVTTPEHQLLKTPSSSSLSQRVRSTLTKNTPRFGSKSKSATNLGRQGNFFASPMLK [RACGAP1]”, for which the thermal stability score is 1.13 in the data set with HeLa Kyoto [1] (setting [5]) and 1.61 with HeLa Kyoto [1] (cell cycle stage: mitosis). Also, in the data set with HeLa Kyoto [2], the “solubility in G1/S (log2)” value was -0.106. Further, in the data set with HeLa Kyoto [3], the “solubility change mitosis (log2)” value came out at 0.141. The melting temperature in the data set on HeLa Kyoto [4] (cell cycle stage: G1/S) was found to be 48.1 °C; in the data set with HeLa Kyoto [4] (cell cycle stage: mitosis), 49.1 °C.

Take PRSS21: the thermal stability score in the data set on HeLa Kyoto [1] (setting [5]) was found to be 0.469; in the data set on HeLa Kyoto [1] (cell cycle stage: mitosis), 0.197. In the data set on HeLa Kyoto [2], the “solubility in G1/S (log2)” value stood at 0.0531. In addition, in the data set with HeLa Kyoto [3], the “solubility change mitosis (log2)” value is -0.176. The melting temperature with HeLa Kyoto [4] (cell cycle stage: G1/S) and in the data set on HeLa Kyoto [4] (cell cycle stage: mitosis) was 52.9 °C in each case.

On to “MGSMFRSEEVALVQLFLPTAAAYTCVSRLGELGLVEFRDLNASVSAFQRRFVVDVRRCEELEKTFTFLQEEVRRAGLVLPPPKGRLPAPPPRDLLRIQEETERLAQELRDVRGNQQALRAQLHQLQLHAAVLRQGHEPQLAAAHTDGASERTPLLQAPGGPHQDLRVNFVAGAVEPHKAPALERLLWRACRGFLIASFRELEQPLEHPVTGEPATWMTFLISYWGEQIGQKIRKITDCFHCHVFPFLQQEEARLGALQQLQQQSQELQEVLGETERFLSQVLGRVLQLLPPGQVQVHKMKAVYLALNQCSVSTTHKCLIAEAWCSVRDLPALQEALRDSSMEEGVSAVAHRIPCRDMPPTLIRTNRFTASFQGIVDAYGVGRYQEVNPAPYTIITFPFLFAVMFGDVGHGLLMFLFALAMVLAENRPAVKAAQNEIWQTFFRGRYLLLLMGLFSIYTGFIYNECFSRATSIFPSGWSVAAMANQSGWSDAFLAQHTMLTLDPNVTGVFLGPYPFGIDPIWSLAANHLSFLNSFKMKMSVILGVVHMAFGVVLGVFNHVHFGQRHRLLLETLPELTFLLGLFGYLVFLVIYKWLCVWAARAASAPSILIHFINMFLFSHSPSNRLLYPRQEVVQATLVVLALAMVPILLLGTPLHLLHRHRRRLRRRPADRQEENKAGLLDLPDASVNGWSSDEEKAGGLDDEEEAELVPSEVLMHQAIHTIEFCLGCVSNTASYLRLWALSLAHAQLSEVLWAMVMRIGLGLGREVGVAAVVLVPIFAAFAVMTVAILLVMEGLSAFLHALRLHWVEFQNKFYSGTGYKLSPFTFAATDD [TCIRG1]”, for which the thermal stability score is -2.43 with HeLa Kyoto [1] (setting [5]) and -1.47 in the data set on HeLa Kyoto [1] (cell cycle stage: mitosis). For the same substance, the “solubility in G1/S (log2)” value with HeLa Kyoto [2] was -0.278. Further, the “solubility change mitosis (log2)” value with HeLa Kyoto [3] came to 0.0336. Besides, the figures for the melting temperature in the data set on HeLa Kyoto [4] (cell cycle stage: G1/S) and with HeLa Kyoto [4] (cell cycle stage: mitosis) were 53 °C and 54.1 °C, respectively.
